Measurements: patent publication US20230270861A1, “Inhibitors of the Artemin Pathway for Treatment of Cancer” (The University of Chicago, priority 2020, published 2023)

Experiments:
[1] = cited from earlier work
[2] = test system: LLC tumor; experiment: Tumor growth of LLC tumor-bearing mice treated with IR or anti-PD-L1 plus test agent; type: in vivo, mouse; conditions: LLC tumor-bearing B6 mice; for Tumor growth: influence on the therapeutic effect of IR and PD-L1 blockade: agent combined with 20 Gy IR or anti-PD-L1
Experimental: (§1) Tumor models and treatments. 1×10^6 MC38, LLC, or B16-SIY tumor cells were subcutaneously injected into the flank of mice. On day 10 after tumor inoculation, tumors were either irradiated with one dose of 20 Gy or mice received sham treatment. For anti-PD-L1 treatment experiments, 200 μg anti-PD-L1 (10F.9G2) or isotype control was given by i.p. every three days for a total of four times starting on day 10 after tumor inoculation. For type I IFN blockade experiments, 200 μg anti-IFNAR1 were intratumorally injected on days 0 and 2 after irradiation. For CD4 or CD8 T cell depletion experiments, 200 μg anti-CD4 or anti-CD8 mAb was delivered four times by i.p. injection every 3 days starting 1 day before therapies. Artemin-neutralizing antibody was delivered i.t. at 1 μg/mouse starting on day of irradiation, every 2 days for 7 doses. For Ter-cell depletion, anti-ter119 was injected i.p. at 20 μg/mouse every 2 days for 4 doses. For Ter-cell or artemin treatment groups, mice were administered 1×10^7 purified Ter cells i.v. every other day for a total of three doses, or mice were treated with 0.5 μg/mouse artemin i.t. every other day starting on day 0 of therapies throughout the studies. For EPO treatment groups, mice were treated with 20 U/mouse EPO i.v. every other day throughout the studies, starting on day 0 of the therapies. IFN-γ was administered through intrasplenic injection on day 15 post tumor implantation at 2 μg/mouse for 1 dose. LOXO-292 was administered by oral gavaging at 100 μg/mouse/day throughout the entire studies, starting on day 0 of the therapies. Spleens were harvested on day 20 or at indicated times post-inoculation for analysis of spleen size or splenic cells. Tumor size was monitored and calculated with the formula for area (length×width).

[3] = test system: LLC tumor; experiment: Spontaneous lung metastasis (number of lung nodules) in LLC tumor-bearing mice; type: in vivo, mouse; conditions: murine LLC model; combined with IR or anti-PD-L1
Experimental: FIG. 55. Number of lung nodules in LLC tumor-bearing mice at the end of tumor growth measurement: anti-PD-L1 treatment. B6 mice were inoculated with LLC cells. On day 10 post inoculation, tumor-bearing mice were treated with anti-PD-L1. Splenectomy was performed 1 day before treatments. Representative data are shown from two or three experiments conducted with 3-5 mice or samples per group. Data are represented as mean±SD. **p<0.01 and ***p<0.001.
FIGS. 62A-62B. Number of lung modules. B6 mice were inoculated with LLC cells. On day 10 post inoculation, tumor-bearing mice were treated with either IR (FIG. 62A) or anti-PD-L1 (FIG. 62B) plus LOXO-292. Splenectomy was performed 1 day before treatments. […] Representative data are shown from two or three experiments conducted with 3-5 mice or samples per group. Data are represented as mean±SD. *p<0.05, **p<0.01, and ***p<0.001.
Tumor models and treatments. 1×10^6 MC38, LLC, or B16-SIY tumor cells were subcutaneously injected into the flank of mice. On day 10 after tumor inoculation, tumors were either irradiated with one dose of 20 Gy or mice received sham treatment. For anti-PD-L1 treatment experiments, 200 μg anti-PD-L1 (10F.9G2) or isotype control was given by i.p. every three days for a total of four times starting on day 10 after tumor inoculation. […] Tumor size was monitored and calculated with the formula for area (length×width).

[4] = test system: p-AKT and p-ERK in LLC cells; experiment: Western blot of p-AKT and p-ERK in LLC cells treated with ARTN and LOXO-292; type: cell-based, mouse; conditions: 100 ng/mL ARTN and 1 μg/mL LOXO-292
Experimental: FIGS. 61A-61C. Tumor growth of LLC tumor-bearing mice treated with LOXO-292 and either IR (FIG. 61A) or anti-PD-L1 (FIG. 61B). (FIG. 61C) p-AKT and p-ERK in LLC cells treated with 100 ng/mL ARTN and 1 μg/mL LOXO-292 were detected by western blot. Representative data are shown from two or three experiments. Data are represented as mean±SD. *p<0.05, **p<0.01, and ***p<0.001.
Western Blot Analysis. Whole-cell protein was extracted with Triton-X100 buffer (150 mM sodium chloride, 50 mM Tris, 1% Triton-X100; pH 8.0) with proteinase inhibitors (Thermo Scientific®). Immuno-blotting analyses were performed as previously described (Hou, Y., Liang, H., Rao, E., Zheng, W., Huang, X., Deng, L., Zhang, Y., Yu, X., Xu, M., Mauceri, H., et al. (2018). Non-canonical NF-kappaB Antagonizes STING Sensor-Mediated DNA Sensing in Radiotherapy. Immunity 49, 490-503 e494). The amount of loaded protein was normalized to GAPDH (60004-1-Ig, Proteintech Group) or actin (8226, Abcam).

[5] = test system: Ter-cells; experiment: Spleen size, splenocytes and splenic Ter-cells by flow cytometry; type: in vivo, mouse
Experimental: as §1
(§2) Flow Cytometry. […] Single cell suspensions were blocked with anti-FcR (2.4G2, BioXcell) and then stained with fluorescence-labeled antibodies. Flow cytometry was performed on BD LSR Fortessa at The University of Chicago core facility and data were analyzed with FlowJo software.

[6] = test system: artemin; experiment: Artemin levels in serum (ELISA) and artemin mRNA in spleen (qPCR); type: in vivo, mouse; conditions: LLC tumor-bearing mice treated with IR or anti-PD-L1 plus EPO i.v.
Experimental: ELISA. Tumor tissues were homogenized in PBS with protease inhibitor followed by the addition of Triton X-100. Serum was collected on day 20 post-tumor inoculation or at indicated times. The concentration of artemin or TGF-β was measured with artemin ELISA Kit (E03A0032 for mouse and E01A0032 for human, BlueGene Biotechnology), or TGF-β1 Mouse ELISA Kit (BMS608-4, Invitrogen).
Real-time PCR assay. mRNA from tumor cells or splenocytes was isolated using TRIzol according to the manufacturer's instructions (Invitrogen). cDNA was synthesized from pd(N)6-primed mRNA reverse transcription using M-MLV superscript reverse transcriptase. Real-time PCR kits (SYBR Premix Ex Taq™, DRR041A) were purchased from Takara Bio Inc. PCR was performed using a CFX96 (Bio-Rad). mRNA specific for the housekeeping gene GAPDH was measured and used as an internal control. The primers for artemin were 5′-TACTGCATTGTCCCACTGCCTCC-3′ (SEQ ID NO: 1) for the upstream primer (UP) and 5′-TCGCAGGGTTCTTTCGCTGCACA-3′ (SEQ ID NO: 2) for the downstream primer (DP); GAPDH: 5′-AGACCAGCCTGAGCAAAAGA-3′ (SEQ ID NO: 3) for UP and 5′-CTAGGCTGGAGTGCAGTGGT-3′ (SEQ ID NO: 4) for DP.

[7] = test system: Ter-cells; experiment: Splenic cells by flow cytometry after intrasplenic IFN-γ injection in LLC-bearing mice; type: in vivo, mouse
Experimental: FIG. 27. Apoptosis of splenic Ter-cells as analyzed by flow cytometry at indicated times post-injection. B6 mice were inoculated with LLC on day 0 and recombinant mouse IFN-γ was administered through intrasplenic injection on day 15. Representative data are shown from two or three experiments conducted with 3-5 mice per group. Data are represented as mean±SD. *p<0.05, **p<0.01, and ***p<0.001.
FIG. 28A-28C. Mechanism of IR-induced Ter-cell reduction in spleen. (FIG. 28A) Apoptosis of splenic CD45^+ immune cells, MDSCs, and CD8^+ T cells as analyzed by flow cytometry at indicated time post IFN-γ intrasplenic injection. (FIG. 28B) The percentage of CD8^+ T cells were analyzed by flow cytometry at indicated time post IFN-γ intrasplenic injection. (FIG. 28C) […] expression on splenic Ter-cells on day 3 post IFN-γ intrasplenic injection. Representative data are shown from two or three experiments conducted with 3-5 mice or samples per group. Data are represented as mean±SD. *p<0.05, **p<0.01, and ***p<0.001.
as §1, with “IFN-γ was administered through intrasplenic injection on day 15 post tumor implantation at 2 μg/mouse for 1 dose. LOXO-292 was administered by oral gavaging at 100 μg/mouse/day throughout the entire studies, starting on day 0 of the therapies. Spleens were harvested on day 20 or at indicated times post-inoculation for analysis of spleen size or splenic cells.” left out
as §2

[8] = LLC tumor-bearing mice, intra-splenic injection

For `CO[C@]1(C(=O)N[C@@H](C)c2ccc(-n3cc(F)cn3)nc2)CC[C@H](c2nc(C)cc(Nc3cc(C)[nH]n3)n2)CC1` [BLU-677], the “Outcomes for patients with RET fusion-positive cancers” value [1] is listed as “improved outcomes”.

In the case of `COc1ccc(CN2C3CC2CN(c2ccc(-c4cc(OCC(C)(C)O)cn5ncc(C#N)c45)cn2)C3)cn1` [LOXO-292], the “Tumor growth: therapeutic effect of IR and PD-L1 blockade in the context of EPO treatment” value ([2]; IR or anti-PD-L1 plus EPO plus agent) is reported as “restored the therapeutic effects of IR and PD-L1 blockade”, the “Tumor growth: influence on the therapeutic effect of IR and PD-L1 blockade” value [2] is reported as “enhanced the effects of IR and PD-L1 blockade” and the “Spontaneous lung metastasis: influence on the effects of IR and PD-L1 blockade” value [3] is reported as “promoted the effects of IR and PD-L1 blockade”. The “Artemin-induced activation of downstream signaling (p-AKT, p-ERK)” value [4] was “inhibited artemin-induced activation of downstream signaling” and the “Outcomes for patients with RET fusion-positive cancers” value [1] was “improved outcomes”.

In the case of IFN-α, the “Ter-cell accumulation in spleen after intra-tumor injection” value ([5]; WT mice bearing LLC or B16-SIY tumors, i.t.) is reported as “reduced Ter-cell accumulation”.

For “rhEPO: Recombinant human erythropoietin used for the treatment of anemia in cancer patients”, the “Survival benefit in cancer patients treated by RT” value ([1]; several clinical trials) is given as “detrimental effects”.

B1: EPO: recombinant erythropoietin (959-ME) from R&D Systems (protein, UniProt P07321 27-192, looked up)
Erythropoietin: APPRLICDSRVLERYILEAKEAENVTMGCAEGPRLSENITVPDTKVNFYAWKRMEVEEQAIEVWQGLSLLSEAILQAQALLANSSQPPETLQLHIDKAISGLRSLTSLLRVLGAQKELMSPPDTTPPAPLRTLTVDTFCKLFRVYANFLRGKLKLYTGEVCRRGDR
In the case of B1, the “Tumor growth: influence on the therapeutic effect of IR and PD-L1 blockade” value [2] is reported as “inhibited the therapeutic effect of both IR and PD-L1 blockade”, the “Ter-cell accumulation under IR or PD-L1 blockade” value ([5]; LLC tumor-bearing mice treated with IR or anti-PD-L1 plus EPO i.v.) is reported as “diminished the effects of IR and PD-L1 blockade” and the “Spleen size and Ter-cell accumulation in naive mice” value ([5]; naive B6 mice, i.v. and s.c. routes) is reported as “increased spleen size and Ter-cell accumulation”. The “Level of secreted artemin in serum under IR or PD-L1 blockade” value [6] was “diminished the effects of IR and PD-L1 blockade”.

B2: IFN-γ: Recombinant mouse IFN-γ (315-05) from Peprotech, intrasplenic injection (protein, UniProt P01580 23-155, looked up)
Interferon gamma: HGTVIESLESLNNYFNSSGIDVEEKSLFLDIWRNWQKDGDMKILQSQIISFYLRLFEVLKDNQAISNNISVIESHLITTFFSNSKAKKDAFMSIAKFEVNNPQVQRQAFNELIRVVHQLLPESSLRKRKRSRC
In the case of B2, the “Abundance of CD8+ T cells in spleen” value [7, 8] is reported as “restored the abundance”, the “Apoptosis of immune cells, including MDSCs and CD8+ T cells” value [7, 8] is reported as “did not change apoptosis levels” and the “Apoptosis of splenic Ter-cells” value ([7]; LLC tumor-bearing mice, intra-splenic injection, 3 days after treatment) is reported as “increased apoptosis of Ter-cells”. For the same molecule, the “MHC I expression on Ter-cells” value ([7]; day 3 post intrasplenic injection) was “enhanced the MHC I expression”.
